In IntAct's records for PubMed 12810663:

B1: DNA mismatch repair protein Mlh1 (Homo sapiens), P40692 (parent)
chain: MSFVAGVIRRLDETVVNRIAAGEVIQRPANAIKEMIENCLDAKSTSIQVIVKEGGLKLIQIQDNGTGIRKEDLDIVCERFTTSKLQSFEDLASISTYGFRGEALASISHVAHVTITTKTADGKCAYRASYSDGKLKAPPKPCAGNQGTQITVEDLFYNIATRRKALKNPSEEYGKILEVVGRYSVHNAGISFSVKKQGETVADVRTLPNASTVDNIRSIFGNAVSRELIEIGCEDKTLAFKMNGYISNANYSVKKCIFLLFINHRLVESTSLRKAIETVYAAYLPKNTHPFLYLSLEISPQNVDVNVHPTKHEVHFLHEESILERVQQHIESKLLGSNSSRMYFTQTLLPGLAGPSGEMVKSTTSLTSSSTSGSSDKVYAHQMVRTDSREQKLDAFLQPLSKPLSSQPQAIVTEDKTDISSGRARQQDEEMLELPAPAEVAAKNQSLEGDTTKGTSEMSEKRGPTSSNPRKRHREDSDVEMVEDDSRKEMTAACTPRRRIINLTSVLSLQEEINEQGHEVLREMLHNHSFVGCVNPQWALAQHQTKLYLLNTTKLSEELFYQILIYDFANFGVLRLSEPAPLFDLAMLALDSPESGWTEEDGPKEGLAEYIVEFLKKKAEMLADYFSLEIDEEGNLIGLPLLIDNYVPPLEGLPIFILRLATEVNWDEEKECFESLSKECAMFYSIRKQYISEESTLSGQQSEVPGSIPNSWKWTVEHIVYKALRSHILPPKHFTEDGNILQLANLPDLYKVFERC
B2: DNA mismatch repair protein Mlh1 (Homo sapiens), P40692 (parent)
chain: B1 chain
partner: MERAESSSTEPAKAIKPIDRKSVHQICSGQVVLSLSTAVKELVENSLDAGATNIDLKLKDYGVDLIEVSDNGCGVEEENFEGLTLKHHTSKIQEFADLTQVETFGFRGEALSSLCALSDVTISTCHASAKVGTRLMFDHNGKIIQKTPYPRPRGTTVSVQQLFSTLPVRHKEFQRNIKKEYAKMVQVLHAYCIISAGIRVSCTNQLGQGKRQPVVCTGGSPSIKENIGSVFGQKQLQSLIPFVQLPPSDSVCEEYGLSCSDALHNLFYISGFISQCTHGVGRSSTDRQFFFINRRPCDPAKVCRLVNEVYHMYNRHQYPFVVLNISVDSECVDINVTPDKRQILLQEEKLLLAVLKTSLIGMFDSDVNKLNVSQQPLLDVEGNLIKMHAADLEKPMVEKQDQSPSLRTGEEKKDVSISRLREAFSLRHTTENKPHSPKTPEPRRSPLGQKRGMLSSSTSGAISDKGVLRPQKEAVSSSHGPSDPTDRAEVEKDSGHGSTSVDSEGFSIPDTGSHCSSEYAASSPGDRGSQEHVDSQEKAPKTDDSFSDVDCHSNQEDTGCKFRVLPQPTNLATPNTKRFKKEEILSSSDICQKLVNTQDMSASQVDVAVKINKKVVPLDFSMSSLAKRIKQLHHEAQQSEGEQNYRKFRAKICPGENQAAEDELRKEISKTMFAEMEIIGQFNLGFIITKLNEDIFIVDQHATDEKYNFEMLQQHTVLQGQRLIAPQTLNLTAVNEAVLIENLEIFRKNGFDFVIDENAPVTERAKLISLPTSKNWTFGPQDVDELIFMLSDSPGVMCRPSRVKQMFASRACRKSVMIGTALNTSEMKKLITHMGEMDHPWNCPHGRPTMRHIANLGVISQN

Variants of: B1
Conditions: with exo1_human EXO1, Q9UQ84

Variant | effect of a mutation on the interaction
T117R | disrupting interaction strength
T117M | disrupting interaction strength
M35R | disrupting interaction strength
S44F | disrupting interaction strength
P28L | disrupting interaction strength
I107R | disrupting interaction strength
I68N | disrupting interaction strength
I32V | with no effect
G67R | disrupting interaction strength
A128P | disrupting interaction strength
C77Y | disrupting interaction strength

The remaining lines, values ahead:

effect of a mutation on the interaction | Variant
disrupting interaction strength | G244D
with no effect | R217C
with no effect | R265H
disrupting interaction strength | V185G
with no effect | V213M
with no effect | I219L
with no effect | I219V
with no effect | V326A
with no effect | S406N

Variants of: B2
Conditions: with pms2_human PMS2, P54278

Variant | effect of a mutation on the interaction
S44F | with no effect
T117M | with no effect
T117R | with no effect
I68N | with no effect
I107R | with no effect
C77Y | with no effect
G67R | with no effect
M35R | with no effect
P28L | with no effect
A128P | with no effect

Results, then the variant that gave them:

effect of a mutation on the interaction | Variant
with no effect | G244D
with no effect | V185G
with no effect | V326A

Variants of: B2
Conditions: with pms2_human PMS2, P54278
Remark: another data set of the same source

Variant | effect of a mutation on the interaction
S44F | disrupting interaction strength
I32V | with no effect
T117M | disrupting interaction strength
T117R | disrupting interaction strength
I68N | disrupting interaction strength
I107R | disrupting interaction strength
C77Y | disrupting interaction strength
G67R | disrupting interaction strength
M35R | disrupting interaction strength
P28L | disrupting interaction strength
A128P | disrupting interaction strength

Results, then the variant that gave them:

effect of a mutation on the interaction | Variant
disrupting interaction strength | G244D
disrupting interaction strength | V185G
with no effect | R217C
with no effect | R265H
with no effect | V213M
with no effect | S406N
with no effect | I219V
with no effect | I219L

Variants of: B2
Conditions: with pms2_human PMS2, P54278
Remark: another data set of the same source

effect of a mutation on the interaction | Variant
decreasing interaction strength | C77Y
